Patent US11833164B2, “Methods of treating Fabry disease in patients having a mutation in the GLA gene” (Amicus Therapeutics, Inc., priority 2019, dated 2023)
Where a chain is given by its changes, count along the chain named. In names and notes the source's numbering stands.

B1: K308I (protein)
chain: MQLRNPELHLGCALALRFLALVSWDIPGARALDNGLARTPTMGWLHWERFMCNLDCQEEPDSCISEKLFMEMAELMVSEGWKDAGYEYLCIDDCWMAPQRDSEGRLQADPQRFPHGIRQLANYVHSKGLKLGIYADVGNKTCAGFPGSFGYYDIDAQTFADWGVDLLKFDGCYCDSLENLADGYKHMSLALNRTGRSIVYSCEWPLYMWPFQKPNYTEIRQYCNHWRNFADIDDSWKSIKSILDWTSFNQERIVDVAGPGGWNDPDMLVIGNFGLSWNQQVTQMALWAIMAAPLFMSNDLRHISPQAIALLQDKDVIAINQDPLGKQGYQLRQGDNFEVWERPLSGLAWAVAMINRQEIGGPRSYTIAVASLGKGVACNPACFITQLLPVKRKLGFYEWTSRLRSHINPTGTVLLQLENTMQMSLKDLL
B2: K308Q (protein)
chain: B1 chain with I308Q
B3: L310I (protein)
chain: B1 chain with I308K, L310I
B4: L311I (protein)
chain: B1 chain with I308K, L311I
B5: Q312E (protein)
chain: B1 chain with I308K, Q312E
B6: K308R (protein)
chain: B1 chain with I308R
B7: A309T (protein)
chain: B1 chain with I308K, A309T
B8: A309D (protein)
chain: B1 chain with I308K, A309D

Tested on: mutant form of α-Gal A expressed in HEK-293 cells
Experiment: HEK assay (GLP HEK / Migalastat Amenability Assay): α-Gal A activity in lysates of transiently transfected HEK-293 cells incubated with or without 10 μM migalastat
Format: cell-based, human
Settings: 10 μM migalastat versus baseline
In short: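 Activity reported as 4-MU released (nmol/mg/hr), mean±SEM, from lysates of transiently transfected HEK-293 cells expressing mutant α-Gal A, cultured with or without 10 μM migalastat.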

**Q.** Which “Absolute increase (% WT)” value does the source give for B1 here?
**A.** 24.2 % WT

**Q.** And the Relative increase?
**A.** 1.5

**Q.** Which “Absolute increase (% WT)” value does the source give for B2 here?
**A.** 30.0 % WT

**Q.** What about the Relative increase of the same molecule?
**A.** 1.5

**Q.** For B3, which “Absolute increase (% WT)” value is on record?
**A.** 19.6 % WT

**Q.** What about the Relative increase of the same molecule?
**A.** 1.3

**Q.** Which results are given for B4?
**A.** Absolute increase (% WT): 23.2 % WT; Relative increase: 2.9

**Q.** Which “Absolute increase (% WT)” value does the source give for B5 here?
**A.** 15.1 % WT

**Q.** And the Relative increase?
**A.** 4.6

**Q.** How did the “Absolute increase (% WT)” value turn out when B6 was run?
**A.** 20.3 % WT

**Q.** And the Relative increase?
**A.** 1.3

**Q.** B7 was tested. Which “Absolute increase (% WT)” value did it give?
**A.** 18.6 % WT

**Q.** What about the Relative increase of the same molecule?
**A.** 1.2

**Q.** Which results are given for B8?
**A.** Absolute increase (% WT): 17.6 % WT; Relative increase: 1.2

Same assay, conditions: absence of migalastat; percentage of baseline wild-type α-Gal A activity; mean ± SEM

**Q.** Which “Baseline α-Gal A activity (% WT)” value does the source give for B1 here?
**A.** 48.6 ± 3.9 % WT

**Q.** With B2 as the molecule, how does the “Baseline α-Gal A activity (% WT)” value read?
**A.** 59.1 ± 3.8 % WT

**Q.** How did the “Baseline α-Gal A activity (% WT)” value turn out when B3 was run?
**A.** 72.8 ± 3.6 % WT

**Q.** For B4, which “Baseline α-Gal A activity (% WT)” value is on record?
**A.** 12.1 ± 0.8 % WT

**Q.** B5 was tested. Which “Baseline α-Gal A activity (% WT)” value did it give?
**A.** 4.1 ± 0.2 % WT

**Q.** For B6, which “Baseline α-Gal A activity (% WT)” value is on record?
**A.** 68.9 ± 4.3 % WT

**Q.** For B7, which “Baseline α-Gal A activity (% WT)” value is on record?
**A.** 74.1 ± 4.6 % WT

**Q.** Which “Baseline α-Gal A activity (% WT)” value does the source give for B8 here?
**A.** 78.3 ± 5.2 % WT

Same assay, conditions: lysates of HEK-293 cells transiently transfected with the mutant form, incubated 5 days in absence of migalastat; mean ± SEM

**Q.** B1 was tested. Which “Baseline α-Gal A activity” value did it give?
**A.** 19195 ± 1555 nmol/mg/h

**Q.** How did the “Baseline α-Gal A activity” value turn out when B2 was run?
**A.** 24208 ± 1996 nmol/mg/h

**Q.** Which “Baseline α-Gal A activity” value does the source give for B3 here?
**A.** 31871 ± 2599 nmol/mg/h

**Q.** Which “Baseline α-Gal A activity” value does the source give for B4 here?
**A.** 4020 ± 235 nmol/mg/h

**Q.** With B5 as the molecule, how does the “Baseline α-Gal A activity” value read?
**A.** 1365 ± 57 nmol/mg/h

**Q.** Which “Baseline α-Gal A activity” value does the source give for B6 here?
**A.** 27103 ± 1767 nmol/mg/h

**Q.** For B7, which “Baseline α-Gal A activity” value is on record?
**A.** 29214 ± 1907 nmol/mg/h

**Q.** For B8, which “Baseline α-Gal A activity” value is on record?
**A.** 31696 ± 3036 nmol/mg/h

Same assay, conditions: lysates of HEK-293 cells transiently transfected with the mutant form, incubated 5 days with 10 μM migalastat; mean ± SEM

**Q.** With B1 as the molecule, how does the “10 μM migalastat α-Gal A activity” value read?
**A.** 29251 ± 2026 nmol/mg/h

**Q.** With B2 as the molecule, how does the “10 μM migalastat α-Gal A activity” value read?
**A.** 35663 ± 2680 nmol/mg/h

**Q.** B3 was tested. Which “10 μM migalastat α-Gal A activity” value did it give?
**A.** 40310 ± 3345 nmol/mg/h

**Q.** B4 was tested. Which “10 μM migalastat α-Gal A activity” value did it give?
**A.** 11558 ± 781 nmol/mg/h

**Q.** With B5 as the molecule, how does the “10 μM migalastat α-Gal A activity” value read?
**A.** 6331 ± 466 nmol/mg/h

**Q.** Which “10 μM migalastat α-Gal A activity” value does the source give for B6 here?
**A.** 35824 ± 2438 nmol/mg/h

**Q.** B7 was tested. Which “10 μM migalastat α-Gal A activity” value did it give?
**A.** 36228 ± 1841 nmol/mg/h

**Q.** How did the “10 μM migalastat α-Gal A activity” value turn out when B8 was run?
**A.** 38325 ± 2376 nmol/mg/h

Same assay, conditions: with 10 μM migalastat, 5 days; percentage of baseline wild-type α-Gal A activity; mean ± SEM

**Q.** Which “10 μM migalastat α-Gal A activity (% WT)” value does the source give for B1 here?
**A.** 72.7 ± 3.6 % WT

**Q.** How did the “10 μM migalastat α-Gal A activity (% WT)” value turn out when B2 was run?
**A.** 89.1 ± 5.5 % WT

**Q.** Which “10 μM migalastat α-Gal A activity (% WT)” value does the source give for B3 here?
**A.** 92.4 ± 5.1 % WT

**Q.** How did the “10 μM migalastat α-Gal A activity (% WT)” value turn out when B4 was run?
**A.** 35.3 ± 3.1 % WT

**Q.** How did the “10 μM migalastat α-Gal A activity (% WT)” value turn out when B5 was run?
**A.** 19.2 ± 1.7 % WT

**Q.** How did the “10 μM migalastat α-Gal A activity (% WT)” value turn out when B6 was run?
**A.** 89.1 ± 4.5 % WT

**Q.** Which “10 μM migalastat α-Gal A activity (% WT)” value does the source give for B7 here?
**A.** 92.7 ± 4.8 % WT

**Q.** For B8, which “10 μM migalastat α-Gal A activity (% WT)” value is on record?
**A.** 95.8 ± 3.7 % WT
